The results in this text go back to patent publication US20030134774A1, “Methods for inhibiting cardiac disorders” (priority 2001, published 2003).

In one assay the test system is ANF mRNA. The assay is described as follows: Northern blot analysis of ANF mRNA in cardiomyocytes. It counts as cell-based, rat. Particulars: rPMT 400 ng/ml or NE 10 μM, 48 hr, serum-free. The protocol:
rPMT mimics the effect of norepinephrine to promote cardiomyocyte hypertrophy. Cardiomyocytes were cultured in serum-free medium without or with rPMT (400 ng/ml) or norepinephrine (NE, 10 μM) for 48 hr. Cardiomyocytes were fixed, permeabilized, and stained with monoclonal anti-α-actinin sarcomeric (Panel A, magnification×100) or subjected to Northern blot analysis for measurements of steady-state ANF mRNA expression (Panel B). Effects of rPMT (black bars) and NE (gray bars) vs. vehicle (white bars) on sarcomeric organization (Panel C), cell size (Panel D), and protein synthesis (Panel E) are illustrated (n=3 for each).
Total RNA from neonatal rat cardiomyocytes were isolated by using a Qiagen kit according to manufacturer's instructions. A rat ANF cDNA probe (˜600 bp) was labeled with [^32P]dCTP. 10 μ/g of total RNA was separated on a 1% agarose gel and transferred to a nylon membrane (Amersham). Prehybridization and hybridization were performed according to standard methods. Normalization of signals was performed with a glyceraldehyde-3-phosphate dehydrogenase probe. Signals were detected by Phosphorimage analysis.

Another assay concerns the target T1, PKC-ε (Rattus norvegicus, UniProt P09216).
T1 construct: endogenous in cells; host or cells: cultured neonatal rat ventricular cardiomyocytes
T1 sequence (P09216 1-737): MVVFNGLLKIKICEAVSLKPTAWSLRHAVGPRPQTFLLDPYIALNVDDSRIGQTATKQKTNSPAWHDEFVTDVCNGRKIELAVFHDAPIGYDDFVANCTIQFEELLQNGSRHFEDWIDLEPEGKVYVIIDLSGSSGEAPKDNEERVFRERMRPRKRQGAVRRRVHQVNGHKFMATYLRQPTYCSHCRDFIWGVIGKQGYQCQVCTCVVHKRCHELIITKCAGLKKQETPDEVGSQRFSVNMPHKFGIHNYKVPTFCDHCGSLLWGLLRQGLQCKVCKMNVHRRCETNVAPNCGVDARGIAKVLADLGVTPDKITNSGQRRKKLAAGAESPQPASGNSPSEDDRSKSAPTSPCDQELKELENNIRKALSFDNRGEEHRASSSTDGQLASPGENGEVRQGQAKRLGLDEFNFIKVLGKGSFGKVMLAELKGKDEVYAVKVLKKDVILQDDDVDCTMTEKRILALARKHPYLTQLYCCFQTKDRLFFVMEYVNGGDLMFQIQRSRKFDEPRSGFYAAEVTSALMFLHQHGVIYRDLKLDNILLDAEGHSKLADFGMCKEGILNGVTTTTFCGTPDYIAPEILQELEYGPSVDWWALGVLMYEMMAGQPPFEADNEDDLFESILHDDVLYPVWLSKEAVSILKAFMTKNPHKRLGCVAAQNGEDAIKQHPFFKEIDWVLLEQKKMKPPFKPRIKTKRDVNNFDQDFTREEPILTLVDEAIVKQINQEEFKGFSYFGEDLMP
Nature of the assay: Western blot with anti-phospho-PKC antibody in cardiomyocytes. In kind it is cell-based. Conditions: 400 ng/ml, 24 hr. On the procedure:
(§1) rPMT selectively activates nPKC isoforms. Cardiomyocyte cultures were incubated in culture medium without or with NE (10 μM), rPMT (400 ng/ml) or PMA (100 nM) for 24 hr (Panels A and C) or 5 min (Panel B). Soluble extracts were prepared and separated by SDS-PAGE followed by immunodetection of total PKC isoform abundance with antibodies that are specific for the individual PKC isoforms (Panel A), or phosphorylated forms of PKC (largely PKCε) with a pan-phospho-PKC antibody (Panels B and C), as described in Methods below. GF109203 was included at 5 μM 30 min prior to stimulation as indicated.
Specific immunoreactivity for individual PKC isoforms was quantified according to methods described previously. For assays of MAPKs and AKT, cells were exposed to test agents as indicated in individual experimental protocols, washed three times with ice-cold calcium/magnesium-free Dulbecco's PBS (pH 7.1), scraped into ice-cold extraction buffer [20 mM β-glycerophosphate pH 7.5, 20 mM sodium fluoride, 2 mM EDTA, 0.2 mM sodium vanadate, 10 μg/ml aprotinin, 25 μg/ml leupeptin, 50 μg/ml PMSF, and 0.3% (v/v) β-mercaptoethanol], lysed by sonication, and centrifuged at 10,000 g for 10 min at 4° C. The supernatant was diluted in SDS-PAGE sample buffer, boiled for 5 min, and stored at −70° C. […] Bands were detected by enhanced chemiluminescence and blots were quantified by laser scanning densitometry.
For orientation: In western blotting, separated proteins are transferred to a membrane and probed.

Another assay deals with PKC isoforms. The assay is described as follows: Immunoblot of PKC isoform partitioning and down-regulation in cardiomyocytes. In kind it is cell-based, rat. Conditions: 400 ng/ml, early time points 30 min-2 hr. The protocol:
rPMT selectively activates nPKC isoforms. […] Soluble extracts were prepared and separated by SDS-PAGE followed by immunodetection of total PKC isoform abundance with antibodies that are specific for the individual PKC isoforms (Panel A), or phosphorylated forms of PKC (largely PKCε) with a pan-phospho-PKC antibody (Panels B and C), as described in Methods below. GF109203 was included at 5 μM 30 min prior to stimulation as indicated.
(§2) Cells were maintained in culture in the presence of 10% FCS for 96 hr and then switched to serum-free medium for 24 hr prior to the addition of agonists as indicated. For PKC, extracts were prepared and subjected to SDS-PAGE to resolve individual isoforms according to methods described previously (14).
(§3) Specific immunoreactivity for individual PKC isoforms was quantified according to methods described previously. […] Bands were detected by enhanced chemiluminescence and blots were quantified by laser scanning densitometry.

The subject of another assay is PKCδ and PKCε. The assay is described as follows: Immunoblot of nPKC isoform abundance in cardiomyocytes. Conditions: 24 hr stimulation. It counts as cell-based, rat. The protocol: as §1, §2, §3
Another assay concerns cardiomyocytes. The assay is described as follows: TUNEL assay of apoptosis in cardiomyocyte cultures. It counts as cell-based, rat. The protocol:
rPMT increases H2O2-induced apoptosis in cardiomyocyte cultures. Cells were treated without or with rPMT (400 ng/ml) for 24 hr followed by H202 (500 μM) for 24 hr. The percentage of cells undergoing apoptosis was measured by TUNEL assay as described in Methods below. Data are from a single experiment and are representative of results obtained on 3 separate culture preparations.
TUNEL staining was performed for detection of apoptotic cells according to manufacturer's instructions (Boehringer). Approximately 500 cardiomyocytes were imaged by fluorescence microscopy and the number of cells that scored TUNEL-positive is presented as a percentage of total.

The test system of a further assay is PKCα and PKCλ. The assay is described as follows: Immunoblot of PKCα/PKCλ abundance and distribution in cardiomyocytes. It counts as cell-based, rat. Particulars: 24 hr stimulation. On the procedure:
as §1, §2, §3

B1: rPMT: recombinant Pasteurella multocida toxin, a Gαq agonist used as pharmacological probe (protein, UniProt P17452 1-1285, looked up)
Dermonecrotic toxin: MKTKHFFNSDFTVKGKSADEIFRRLCTDHPDKQLNNVKWKEVFINRFGQMMLDTPNPRKIVEKIINEGLEKQGLKNIDPETTYFNIFSSSDSSDGNVFHYNSLSESYRVTDACLMNIFVERYFDDWDLLNSLASNGIYSVGKEGAYYPDHDYGPEYNPVWGPNEQIYHSRVIADILYARSVWDEFKKYFMEYWQKYAQLYTEMLSDTFLAMAIQQYTRQTLTDEGFLMVCNTYYGNKEEVQITLLDIYGYPSTDIICIEQKGLPTPKVILYIPGGTQPFVEFLNTDDLKQWIAWHLKDNKHMVAFRKHFSLKQRQEGETFTGIDKALQYIAEESPEWPANKYILYNPTHLETENLFNIMMKRTEQRMLEDSDVQIRSNSEATRDYALSLLETFISQLSAIDMLVPAVGIPINFALSATALGLSSDIVVNGDSYEKRKYGIGSLVQSALFTGINLIPVISETAEILSSFSRTEEDIPAFFTEEQALAQRFEIVEEELHSISPDDPPREITDENLHKIRLVRLNNENQPLVVLRRLGGNKFIRIEPITFQEIKGSLVSEVINPVTNKTYYVSNAKLLGGSPYSPFRIGLEGVWTPEVLKARASVIGKPIGESYKRILAKLQRIHNSNILDERQGLMHELMELIDLYEESQPSSERLNAFRELRTQLEKALYLPEMEALKKQILQIPNKGSGAARFLLRTAMNEMAGKTSESTADLIRFALQDTVISAPFRGYAGAIPEAIDFPVKYVIEDISVFDKIQTNYWELPAYESWNEGSNSALLPGLLRESQSKGMLSKCRIIENSLYIGHSYEEMFYSISPYSNQVGGPYELYPFTFFSMLQEVQGDLGFEQAFATRNFFNTLVSDRLSLMENTMLLTESFDYTPWDAIYGDINYDEQFAAMSINERIEKCMNTYRGVAFQNSSKSIDFFLNNLTTFIDNGLTEIAISDLPYDIVQQEISQFLQGSNEWKTLDAMLFNLDKGDINGAFRKLLQSAKDNNIKFRAIGHSDNSVPPFNNPYKSLYYKGNIIAEAIEKLDREGQKFVVFADSSLLNSTPGTGRPMPGLVQYLKIPATVVDSDGAWQFLPDVASSRVPIEVTELENWQVLTPPQGKILGLKQFKLTAGFPTEQSRLPLLENSVSEDLREELMQKIDAIKNDVKMNSLVCMEAGSCDSVSPKVAARLKDMGLEAGMGASITWWRREGGMEFSHQMHTTASFKFAGKEFAVDASHLQFVHDQLDTTILILPVDDWALEIAQRNRAINPFVEYVSKTGNMLALFMPPLFTKPRLTRAL
Turning to B1, in the assay with ANF mRNA, the “ANF mRNA expression” value is recorded as “induce ANF mRNA expression”. The PKC-ε phosphorylation result with PKC-ε was “enhanced”. Moreover, the “partitioning of PKC isoforms between soluble and particulate fractions” value with PKC isoforms is recorded as “does not detectably alter”. In the assay on PKCδ and PKCε, the “abundance of PKC-δ and PKC-ε in the particulate fraction” value was “remains relatively preserved”; the “abundance of PKCδ and PKCε in the soluble fraction” value is listed as “significantly reduce”. Also, in the assay on cardiomyocytes (rPMT 400 ng/ml 24 hr followed by H2O2 500 μM 24 hr), the “effect on H2O2-induced apoptosis” value was “augmented”. Further, the “number of TUNEL-positive cells” value in the assay on cardiomyocytes (serum-free conditions for 48 hr) is reported as “small increase”. Further, the “abundance and subcellular distribution of PKCα and PKCλ” value in the assay on PKCα and PKCλ is recorded as “is not altered”.
